Laboratory results published in IntAct's records for PubMed 11278422.

B1: Apoptosis-stimulating of p53 protein 2 (Homo sapiens), Q13625-2 (parent)
chain: MDLTLAELQEMASRQQQQIEAQQQLLATKEQRLKFLKQQDQRQQQQVAEQEKLKRLKEIAENQEAKLKKVRALKGHVEQKRLSNGKLVEEIEQMNNLFQQKQRELVLAVSKVEELTRQLEMLKNGRIDSHHDNQSAVAELDRLYKELQLRNKLNQEQNAKLQQQRECLNKRNSEVAVMDKRVNELRDRLWKKKAALQQKENLPVSSDGNLPQQAASAPSRVAAVGPYIQSSTMPRMPSRPELLVKPALPDGSLVIQASEGPMKIQTLPNMRSGAASQTKGSKIHPVGPDWSPSNADLFPSQGSASVPQSTGNALDQVDDGEVPLREKEKKVRPFSMFDAVDQSNAPPSFGTLRKNQSSEDILRDAQVANKNVAKVPPPVPTKPKQINLPYFGQTNQPPSDIKPDGSSQQLSTVVPSMGTKPKPAGQQPRVLLSPSIPSVGQDQTLSPGSKQESPPAAAVRPFTPQPSKDTLLPPFRKPQTVAASSIYSMYTQQQAPGKNFQQAVQSALTKTHTRGPHFSSVYGKPVIAAAQNQQQHPENIYSNSQGKPGSPEPETEPVSSVQENHENERIPRPLSPTKLLPFLSNPYRNQSDADLEALRKKLSNAPRPLKKRSSITEPEGPNGPNIQKLLYQRTTIAAMETISVPSYPSKSASVTASSESPVEIQNPYLHVEPEKEVVSLVPESLSPEDVGNASTENSDMPAPSPGLDYEPEGVPDNSPNLQNNPEEPNPEAPHVLDVYLEEYPPYPPPPYPSGEPEGPGEDSVSMRPPEITGQVSLPPGKRTNLRKTGSERIAHGMRVKFNPLALLLDSSLEGEFDLVQRIIYEVDDPSLPNDEGITALHNAVCAGHTEIVKFLVQFGVNVNAADSDGWTPLHCAASCNNVQVCKFLVESGAAVFAMTYSDMQTAADKCEEMEEGYTQCSQFLYGVQEKMGIMNKGVIYALWDYEPQNDDELPMKEGDCMTIIHREDEDEIEWWWARLNDKEGYVPRNLLGLYPRIKPRQRSLA

Variants of: B1
Conditions: with yap1_chick YAP1, P46936
yap1_chick YAP1, P46936, sequence (P46936 whole entry): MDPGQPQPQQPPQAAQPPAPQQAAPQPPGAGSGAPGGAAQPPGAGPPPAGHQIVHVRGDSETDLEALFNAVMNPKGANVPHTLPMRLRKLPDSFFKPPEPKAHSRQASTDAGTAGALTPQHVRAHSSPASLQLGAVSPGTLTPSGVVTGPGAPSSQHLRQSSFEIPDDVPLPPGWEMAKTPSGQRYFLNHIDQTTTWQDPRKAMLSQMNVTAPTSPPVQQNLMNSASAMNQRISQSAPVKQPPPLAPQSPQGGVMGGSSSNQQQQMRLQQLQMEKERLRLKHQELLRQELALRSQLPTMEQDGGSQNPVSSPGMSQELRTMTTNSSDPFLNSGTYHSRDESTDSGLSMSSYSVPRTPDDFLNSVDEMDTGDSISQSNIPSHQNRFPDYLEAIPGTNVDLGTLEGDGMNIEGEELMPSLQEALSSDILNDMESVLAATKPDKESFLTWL

Variant | effect of a mutation on the interaction
Y751A | disrupting interaction

Variants of: B1
Conditions: with yap1_chick YAP1, P46936
Remark: another data set of the same source

Variant | effect of a mutation on the interaction
P747A | decreasing interaction

Variants of: B1
Conditions: with yap1_chick YAP1, P46936
Remark: another data set of the same source

Variant | effect of a mutation on the interaction
P749A | disrupting interaction

Variants of: B1
Conditions: with yap1_chick YAP1, P46936
Remark: another data set of the same source

Variant | effect of a mutation on the interaction
P748A | disrupting interaction

Variants of: B1
Conditions: with yap1_chick YAP1, P46936
Remark: another data set of the same source

Variant | effect of a mutation on the interaction
Y746A | disrupting interaction
